# Numbered stars: 1 amine (or outer) side, 2 acyl side, 3 side chain; on linkers, the order of the positions; unused ones are H or OH. Square brackets hold non-standard residues; d marks the D form. Side chains are listed from the residue outwards. * marks the point of attachment. γGlu = O=C(O)[C@H](CCC(=O)[*:2])N[*:1]; Palmitoyl = CCCCCCCCCCCCCCCC(=O)*; Aib = CC(C)(N)C(=O)O
# T1: endogenous GLP-1 receptor of a murine insulinoma cell line (murine, UniProt O35659 22-463)
# T1 sequence (looked up): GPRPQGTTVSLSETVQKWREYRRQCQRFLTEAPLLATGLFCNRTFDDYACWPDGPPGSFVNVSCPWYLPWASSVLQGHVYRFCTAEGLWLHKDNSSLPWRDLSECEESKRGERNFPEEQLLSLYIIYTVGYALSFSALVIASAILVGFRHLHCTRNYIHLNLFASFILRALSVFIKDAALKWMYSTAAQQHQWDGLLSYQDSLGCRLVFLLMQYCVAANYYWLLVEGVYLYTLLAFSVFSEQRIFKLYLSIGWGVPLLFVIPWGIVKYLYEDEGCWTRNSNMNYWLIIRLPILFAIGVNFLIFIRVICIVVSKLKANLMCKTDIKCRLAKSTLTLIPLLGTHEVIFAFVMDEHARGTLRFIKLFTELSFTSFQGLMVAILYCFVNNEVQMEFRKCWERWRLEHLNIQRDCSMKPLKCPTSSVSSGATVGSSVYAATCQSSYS
# B1: Compound 16 (peptide)
# peptide: H-H[Aib]QGTFTSDYSKYLDSK([γGlu-Palmitoyl])AAEDFVEWLESA-NH2
# SMILES: CCCCCCCCCCCCCCCC(=O)N[C@@H](CCC(=O)NCCCC[C@H](NC(=O)[C@H](CO)NC(=O)[C@H](CC(=O)O)NC(=O)[C@H](CC(C)C)NC(=O)[C@H](Cc1ccc(O)cc1)NC(=O)[C@H](CCCCN)NC(=O)[C@H](CO)NC(=O)[C@H](Cc1ccc(O)cc1)NC(=O)[C@H](CC(=O)O)NC(=O)[C@H](CO)NC(=O)[C@@H](NC(=O)[C@H](Cc1ccccc1)NC(=O)[C@@H](NC(=O)CNC(=O)[C@H](CCC(N)=O)NC(=O)C(C)(C)NC(=O)[C@@H](N)Cc1c[nH]cn1)[C@@H](C)O)[C@@H](C)O)C(=O)N[C@@H](C)C(=O)N[C@@H](C)C(=O)N[C@@H](CCC(=O)O)C(=O)N[C@@H](CC(=O)O)C(=O)N[C@@H](Cc1ccccc1)C(=O)N[C@H](C(=O)N[C@@H](CCC(=O)O)C(=O)N[C@@H](Cc1c[nH]c2ccccc12)C(=O)N[C@@H](CC(C)C)C(=O)N[C@@H](CCC(=O)O)C(=O)N[C@@H](CO)C(=O)N[C@@H](C)C(N)=O)C(C)C)C(=O)O
# B2: Compound 25 (peptide)
# peptide: HXQGTFTSDYSKYLDEXAAKDFIEWLESA
# modifications: D-Ser at position 2; Lys 17 K(Hexadecanoyl-isoGlu); C-terminal amide (-NH2)
# B3: Compound 18 (peptide)
# peptide: H-HSHGTFTSDYSKYLEEK([γGlu-Palmitoyl])AAHEFIEWLESA-OH
# SMILES: CCCCCCCCCCCCCCCC(=O)N[C@@H](CCC(=O)NCCCC[C@H](NC(=O)[C@H](CCC(=O)O)NC(=O)[C@H](CCC(=O)O)NC(=O)[C@H](CC(C)C)NC(=O)[C@H](Cc1ccc(O)cc1)NC(=O)[C@H](CCCCN)NC(=O)[C@H](CO)NC(=O)[C@H](Cc1ccc(O)cc1)NC(=O)[C@H](CC(=O)O)NC(=O)[C@H](CO)NC(=O)[C@@H](NC(=O)[C@H](Cc1ccccc1)NC(=O)[C@@H](NC(=O)CNC(=O)[C@H](Cc1c[nH]cn1)NC(=O)[C@H](CO)NC(=O)[C@@H](N)Cc1c[nH]cn1)[C@@H](C)O)[C@@H](C)O)C(=O)N[C@@H](C)C(=O)N[C@@H](C)C(=O)N[C@@H](Cc1c[nH]cn1)C(=O)N[C@@H](CCC(=O)O)C(=O)N[C@@H](Cc1ccccc1)C(=O)N[C@H](C(=O)N[C@@H](CCC(=O)O)C(=O)N[C@@H](Cc1c[nH]c2ccccc12)C(=O)N[C@@H](CC(C)C)C(=O)N[C@@H](CCC(=O)O)C(=O)N[C@@H](CO)C(=O)N[C@@H](C)C(=O)O)[C@@H](C)CC)C(=O)O
# B4: Compound 15 (peptide)
# peptide: HXQGTFTSDYSKYLDEXAAKDFIEWLESA
# modifications: Aib at position 2; Lys 17 K(Hexadecanoyl-isoGlu); C-terminal amide (-NH2)
# B5: Compound 14 (peptide)
# peptide: H-H[Aib]QGTFTSDYSKYLDEK([γGlu-Palmitoyl])RAKDFIEWLLSA-OH
# SMILES: CCCCCCCCCCCCCCCC(=O)N[C@@H](CCC(=O)NCCCC[C@H](NC(=O)[C@H](CCC(=O)O)NC(=O)[C@H](CC(=O)O)NC(=O)[C@H](CC(C)C)NC(=O)[C@H](Cc1ccc(O)cc1)NC(=O)[C@H](CCCCN)NC(=O)[C@H](CO)NC(=O)[C@H](Cc1ccc(O)cc1)NC(=O)[C@H](CC(=O)O)NC(=O)[C@H](CO)NC(=O)[C@@H](NC(=O)[C@H](Cc1ccccc1)NC(=O)[C@@H](NC(=O)CNC(=O)[C@H](CCC(N)=O)NC(=O)C(C)(C)NC(=O)[C@@H](N)Cc1c[nH]cn1)[C@@H](C)O)[C@@H](C)O)C(=O)N[C@@H](CCCNC(=N)N)C(=O)N[C@@H](C)C(=O)N[C@@H](CCCCN)C(=O)N[C@@H](CC(=O)O)C(=O)N[C@@H](Cc1ccccc1)C(=O)N[C@H](C(=O)N[C@@H](CCC(=O)O)C(=O)N[C@@H](Cc1c[nH]c2ccccc12)C(=O)N[C@@H](CC(C)C)C(=O)N[C@@H](CC(C)C)C(=O)N[C@@H](CO)C(=O)N[C@@H](C)C(=O)O)[C@@H](C)CC)C(=O)O
# B6: Compound 13 (peptide)
# peptide: HXQGTFTSDYSKYLDSXAAHDFVEWLLSA
# modifications: Aib at position 2; Lys 17 K(Hexadecanoyl-isoGlu); C-terminal -OH
# B7: Compound 12 (peptide)
# peptide: H-HSQGTFTSDYSRYLDSK([γGlu-Palmitoyl])AAHDFVEWLLSA-NH2
# SMILES: CCCCCCCCCCCCCCCC(=O)N[C@@H](CCC(=O)NCCCC[C@H](NC(=O)[C@H](CO)NC(=O)[C@H](CC(=O)O)NC(=O)[C@H](CC(C)C)NC(=O)[C@H](Cc1ccc(O)cc1)NC(=O)[C@H](CCCNC(=N)N)NC(=O)[C@H](CO)NC(=O)[C@H](Cc1ccc(O)cc1)NC(=O)[C@H](CC(=O)O)NC(=O)[C@H](CO)NC(=O)[C@@H](NC(=O)[C@H](Cc1ccccc1)NC(=O)[C@@H](NC(=O)CNC(=O)[C@H](CCC(N)=O)NC(=O)[C@H](CO)NC(=O)[C@@H](N)Cc1c[nH]cn1)[C@@H](C)O)[C@@H](C)O)C(=O)N[C@@H](C)C(=O)N[C@@H](C)C(=O)N[C@@H](Cc1c[nH]cn1)C(=O)N[C@@H](CC(=O)O)C(=O)N[C@@H](Cc1ccccc1)C(=O)N[C@H](C(=O)N[C@@H](CCC(=O)O)C(=O)N[C@@H](Cc1c[nH]c2ccccc12)C(=O)N[C@@H](CC(C)C)C(=O)N[C@@H](CC(C)C)C(=O)N[C@@H](CO)C(=O)N[C@@H](C)C(N)=O)C(C)C)C(=O)O
# B8: Compound 17 (peptide)
# peptide: H-H[Aib]HGTFTSDYSKYLESK([γGlu-Palmitoyl])AAEEFIEWLESA-OH
# SMILES: CCCCCCCCCCCCCCCC(=O)N[C@@H](CCC(=O)NCCCC[C@H](NC(=O)[C@H](CO)NC(=O)[C@H](CCC(=O)O)NC(=O)[C@H](CC(C)C)NC(=O)[C@H](Cc1ccc(O)cc1)NC(=O)[C@H](CCCCN)NC(=O)[C@H](CO)NC(=O)[C@H](Cc1ccc(O)cc1)NC(=O)[C@H](CC(=O)O)NC(=O)[C@H](CO)NC(=O)[C@@H](NC(=O)[C@H](Cc1ccccc1)NC(=O)[C@@H](NC(=O)CNC(=O)[C@H](Cc1c[nH]cn1)NC(=O)C(C)(C)NC(=O)[C@@H](N)Cc1c[nH]cn1)[C@@H](C)O)[C@@H](C)O)C(=O)N[C@@H](C)C(=O)N[C@@H](C)C(=O)N[C@@H](CCC(=O)O)C(=O)N[C@@H](CCC(=O)O)C(=O)N[C@@H](Cc1ccccc1)C(=O)N[C@H](C(=O)N[C@@H](CCC(=O)O)C(=O)N[C@@H](Cc1c[nH]c2ccccc12)C(=O)N[C@@H](CC(C)C)C(=O)N[C@@H](CCC(=O)O)C(=O)N[C@@H](CO)C(=O)N[C@@H](C)C(=O)O)[C@@H](C)CC)C(=O)O
# Molecular target: T1, endogenous GLP-1 receptor of a murine …
# Test: cell-based or functional assay
row,Binder,EC50 GLP-1R (murine insulinoma cells) [nM] (cAMP)
1,B1,0.33
2,B2,0.41
3,B3,0.99
4,B4,0.3
5,B5,0.72
6,B6,1.06
7,B7,1.62
8,B8,0.89

# Molecular target: endogenous glucagon receptor of primary rat hepatocytes (rat, UniProt P30082 27-485)
# Sequence (P30082 27-485): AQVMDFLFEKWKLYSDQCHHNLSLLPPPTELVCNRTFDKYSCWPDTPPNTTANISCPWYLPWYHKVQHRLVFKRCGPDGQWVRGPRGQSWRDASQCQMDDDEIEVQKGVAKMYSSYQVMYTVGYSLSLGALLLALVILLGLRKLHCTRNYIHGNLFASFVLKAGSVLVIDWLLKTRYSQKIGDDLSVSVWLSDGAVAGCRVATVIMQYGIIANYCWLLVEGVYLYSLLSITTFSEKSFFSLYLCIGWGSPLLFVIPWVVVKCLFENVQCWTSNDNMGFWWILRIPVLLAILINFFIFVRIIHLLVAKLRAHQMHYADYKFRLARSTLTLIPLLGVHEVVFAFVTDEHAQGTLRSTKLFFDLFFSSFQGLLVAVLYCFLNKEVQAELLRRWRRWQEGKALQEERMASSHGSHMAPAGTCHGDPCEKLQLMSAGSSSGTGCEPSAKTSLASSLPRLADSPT
# Test: cell-based or functional assay
row,Binder,EC50 GLP-1R Rat hepat. [nM] (inhibition of glycogen synthesis)
1,B1,1.85
2,B2,0.15
3,B3,0.18
4,B4,0.17
5,B5,0.1
6,B6,0.67
7,B7,0.24
8,B8,0.18

# Molecular target: T2, human glucagon receptor (Glucagon-R) (human, UniProt P47871 26-477)
# T2 sequence (P47871 26-477): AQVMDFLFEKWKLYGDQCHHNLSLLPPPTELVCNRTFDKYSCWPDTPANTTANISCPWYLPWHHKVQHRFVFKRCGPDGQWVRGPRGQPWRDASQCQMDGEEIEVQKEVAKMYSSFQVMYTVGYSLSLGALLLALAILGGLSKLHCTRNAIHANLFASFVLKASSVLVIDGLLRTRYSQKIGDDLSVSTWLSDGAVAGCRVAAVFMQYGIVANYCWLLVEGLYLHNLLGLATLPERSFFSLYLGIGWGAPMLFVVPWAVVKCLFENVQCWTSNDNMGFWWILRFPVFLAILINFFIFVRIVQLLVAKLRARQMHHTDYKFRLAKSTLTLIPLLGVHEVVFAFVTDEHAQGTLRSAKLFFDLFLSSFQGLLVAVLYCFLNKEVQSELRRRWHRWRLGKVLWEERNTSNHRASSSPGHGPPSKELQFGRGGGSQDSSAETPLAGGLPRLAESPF
# Test: cell-based or functional assay
row,Binder,EC50 hGCGR CHO-K1 [nM] (cAMP)
1,B1,1.58
2,B4,0.61
3,B5,0.54
4,B6,0.98
5,B7,0.43

# Molecular target: T3, human glucagon-like peptide 1 receptor (GLP-1R) (human, UniProt P43220 24-463)
# Test: cell-based or functional assay
Binder,EC50 hGLP-1R CHO-K1 [nM] (cAMP),Ratio GLP-1/Glucagon (EC50 hGLP-1R / EC50 hGCGR) [ratio]
B1,0.2,0.13
B4,0.19,0.31
B5,0.53,0.98
B6,0.51,0.52
B7,0.37,0.86

# Molecular target: T2, human glucagon receptor (Glucagon-R)
# Test: cell-based or functional assay
# Remark: another data set of the same source
row,Binder,EC50 hGCGR CHO-K1 [nM] (cAMP)
1,B2,0.16
2,B3,0.14
3,B8,0.05

# Molecular target: T3, human glucagon-like peptide 1 receptor …
# Test: cell-based or functional assay
# Remark: another data set of the same source
Binder,EC50 hGLP-1R CHO-K1 [nM] (cAMP),Ratio GLP-1/Glucagon (EC50 hGLP-1R / EC50 hGCGR) [ratio]
B2,0.31,1.94
B3,0.87,6.2
B8,0.23,4.6

# — patent US20140080757A1 (ZEALAND PHARMA A S, published 2014)
